Measurements as given in US20130123173A1, “CREATION OF OXIDATION-RESISTANT HDL MIMETIC PEPTIDES” (The Regents of the University of California, priority 2010, published 2013).
“Also recorded” adds a separate entry of the source.

Columns and labels:
J774 macrophages [1] = test: Cholesterol efflux from cAMP-treated J774 macrophages (ABCA1 cholesterol efflux); assay type: cell-based; conditions: for change of cholesterol efflux activity upon exposure to acrolein: excess molar acrolein; for cholesterol efflux activity: no oxidant exposure, lipid-free peptides, cAMP-treated J774 macrophages
Experimental: FIG. 1 provides data showing the sensitivity of ABCA1 efflux peptide ATI-5261 and an analog to acrolein. ATI-5261 was engineered with arginine (R) in place of lysine (K) at positions 5 and 25 (K5, 25/R), creating an oxidation-resistant analog. […] Panel B. Dependence of cholesterol efflux on ABCA1 expression, as judged with and without cAMP (no oxidant exposure). Peptides were used in lipid-free form at […]. Panel C. Peptides were incubated (37° C., 24 h) with acrolein at a molar ratio of 50:1 (acrolein:peptide) in the presence of DTPA; excess aminoguanidine was added to terminate reactions and peptides dialyzed to PBS. Cholesterol efflux (8 h) was assessed using cAMP-treated J774 cells and peptides at 2 mg/ml. Values are % of control efflux with peptides not treated with acrolein.
Panel D. Impact of varying molar ratio of acrolein relative to ATI-5261 on cholesterol efflux from cAMP treated J774 cells.
Suitable cholesterol efflux assays are described in, e.g., Bielicki, J. K and Oda, M. N., Biochemistry, 41:2089-2096 (2002); Jia et al., Biochem. Biophys. Res. Common., 297:206-213 (2002). In some embodiments, a polypeptide known to mediate cholesterol efflux (e.g., helix 9/10 of Apo A-I) is used to screen for additional mediators of cholesterol efflux in a cell based assay. For example, cell lines in which cholesterol efflux can be enhanced using a cAMP analog that up-regulates ABCA1 protein expression (e.g., J774 macrophages) can conveniently be used to assess the ability of a polypeptide of the present invention to mediate cholesterol efflux. The cells are incubated with labeled cholesterol (e.g., [^3H]cholesterol) under conditions appropriate for cholesterol uptake by the cells. Thus, cAMP or cAMP analogs (e.g., CPT-cAMP) are incubated with the cells for a suitable time before the initiation of cellular cholesterol efflux, i.e., prior to contacting the cells with a test polypeptide. Measurement of labeled cholesterol appearing in the medium is used to determine the cholesterol efflux mediating activity of the test polypeptide.

[2] = α-helical content (secondary structure) of peptides with and without acrolein; assay type: physicochemical; conditions: for α-helical content: 10 mM phosphate buffer (pH=7.4); for α-helical content, comparison in words: FIG. 2 legend, vs ATI-5261 control or vs untreated peptide
Experimental: FIG. 2 provides data showing the % α-helical content of ATI-5261 and the K5, 25→R analog peptide. Peptides in 10 mM phosphate buffer (pH=7.4) were analyzed. […] Biosyn. denotes source (commercial vendor) used to synthesize peptides (same for all peptides).

[3] = test system: macrophage reverse cholesterol transport; test: Macrophage reverse cholesterol transport upon exposure to oxidative stress; assay type: in vivo; conditions: vs ATI-5261
[4] = SDS-PAGE analysis of peptides following exposure to acrolein (cross-linking); assay type: physicochemical; conditions: 20-fold molar excess of acrolein, 37° C., 20 h
Experimental: Peptides ATI-5261 and K5,25 were exposed to 20-fold molar excess of acrolein or buffer alone and incubated 37° C. for 20 h. Lane 1—MW standards (kDa); lane 2, K5,25→R peptide exposed to acrolein; Lane3, ATI-5261 exposed to acrolein; lane 4, K5, 25→R peptide buffer control; Lane 5, ATI-5261 buffer control. Peptide loads were 3 μg/well.

atherosclerosis = conditions: mice fed high-fat western-diet; cited from earlier work
J774 macrophages [5] = conditions: background statement; cited from earlier work
ABCA1 = ABCA1 (UniProt P41233 1-2261, limits assumed); test: cell-based or functional assay
Sequence of ABCA1 (P41233 whole entry): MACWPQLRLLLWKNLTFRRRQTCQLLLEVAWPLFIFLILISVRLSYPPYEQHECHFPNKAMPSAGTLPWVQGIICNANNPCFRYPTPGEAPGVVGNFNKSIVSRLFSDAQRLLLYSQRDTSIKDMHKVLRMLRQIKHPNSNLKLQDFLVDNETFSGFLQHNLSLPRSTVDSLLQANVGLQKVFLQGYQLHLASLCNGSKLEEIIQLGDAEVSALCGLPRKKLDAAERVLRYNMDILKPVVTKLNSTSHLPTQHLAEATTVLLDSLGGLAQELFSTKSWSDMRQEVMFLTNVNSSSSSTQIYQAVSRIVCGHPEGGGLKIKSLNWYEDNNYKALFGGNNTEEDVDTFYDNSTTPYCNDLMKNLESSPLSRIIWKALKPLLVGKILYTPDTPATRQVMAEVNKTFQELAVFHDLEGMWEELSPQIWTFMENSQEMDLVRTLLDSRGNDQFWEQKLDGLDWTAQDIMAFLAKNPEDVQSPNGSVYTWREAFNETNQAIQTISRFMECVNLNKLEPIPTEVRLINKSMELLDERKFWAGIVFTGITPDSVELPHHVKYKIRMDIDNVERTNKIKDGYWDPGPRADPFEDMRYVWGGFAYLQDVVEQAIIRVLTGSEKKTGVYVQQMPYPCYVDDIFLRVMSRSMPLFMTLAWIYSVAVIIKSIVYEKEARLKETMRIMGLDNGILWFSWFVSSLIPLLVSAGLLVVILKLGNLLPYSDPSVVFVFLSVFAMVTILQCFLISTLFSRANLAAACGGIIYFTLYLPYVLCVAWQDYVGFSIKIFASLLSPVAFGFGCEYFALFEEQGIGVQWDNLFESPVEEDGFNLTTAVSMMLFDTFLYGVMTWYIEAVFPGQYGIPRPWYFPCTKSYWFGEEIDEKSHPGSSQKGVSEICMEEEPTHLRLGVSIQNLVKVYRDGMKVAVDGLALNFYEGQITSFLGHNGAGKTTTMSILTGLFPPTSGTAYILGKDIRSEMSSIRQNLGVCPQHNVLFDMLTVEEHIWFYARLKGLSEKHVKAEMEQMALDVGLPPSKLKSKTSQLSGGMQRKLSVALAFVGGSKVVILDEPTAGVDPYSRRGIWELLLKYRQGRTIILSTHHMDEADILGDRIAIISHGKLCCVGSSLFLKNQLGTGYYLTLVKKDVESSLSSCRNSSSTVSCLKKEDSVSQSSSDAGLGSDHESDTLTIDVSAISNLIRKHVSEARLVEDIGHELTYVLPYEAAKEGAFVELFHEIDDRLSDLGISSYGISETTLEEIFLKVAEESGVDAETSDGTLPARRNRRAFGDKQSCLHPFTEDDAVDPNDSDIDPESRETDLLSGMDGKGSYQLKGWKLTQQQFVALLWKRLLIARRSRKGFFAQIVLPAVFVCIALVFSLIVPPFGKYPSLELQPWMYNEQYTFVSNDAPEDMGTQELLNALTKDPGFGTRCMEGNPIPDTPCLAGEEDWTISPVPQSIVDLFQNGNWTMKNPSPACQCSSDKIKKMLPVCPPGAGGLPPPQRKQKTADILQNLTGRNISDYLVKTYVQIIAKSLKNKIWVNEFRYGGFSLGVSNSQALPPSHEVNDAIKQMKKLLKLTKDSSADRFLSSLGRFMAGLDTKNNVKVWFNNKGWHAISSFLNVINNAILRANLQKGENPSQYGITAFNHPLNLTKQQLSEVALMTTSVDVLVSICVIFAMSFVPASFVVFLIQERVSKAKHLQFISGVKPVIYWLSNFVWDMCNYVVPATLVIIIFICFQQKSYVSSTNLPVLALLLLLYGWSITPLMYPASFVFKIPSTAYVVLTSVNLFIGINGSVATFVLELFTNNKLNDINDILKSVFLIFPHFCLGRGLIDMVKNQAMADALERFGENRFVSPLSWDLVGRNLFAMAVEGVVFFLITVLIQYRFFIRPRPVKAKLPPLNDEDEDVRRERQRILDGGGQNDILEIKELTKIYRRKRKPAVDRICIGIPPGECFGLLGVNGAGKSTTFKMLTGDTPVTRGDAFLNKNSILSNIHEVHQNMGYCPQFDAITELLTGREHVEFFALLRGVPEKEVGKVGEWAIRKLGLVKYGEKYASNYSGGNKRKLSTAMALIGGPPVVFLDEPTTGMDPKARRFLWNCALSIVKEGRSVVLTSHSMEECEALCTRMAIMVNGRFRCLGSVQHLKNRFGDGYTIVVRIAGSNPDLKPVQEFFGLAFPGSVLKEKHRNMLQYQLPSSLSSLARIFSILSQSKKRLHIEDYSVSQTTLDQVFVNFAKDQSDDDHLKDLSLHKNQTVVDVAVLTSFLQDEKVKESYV

Row | Molecule | augmentation of cholesterol efflux activity by acrolein (J774 macrophages [1]; acrolein-treated peptide vs untreated peptide) | change of cholesterol efflux activity upon exposure to acrolein (J774 macrophages [1]) | cholesterol efflux activity (J774 macrophages [1]) | cholesterol efflux activity (J774 macrophages [1]; listed as K→R) | α-helical content ([2]; +Acrolein) | α-helical content, comparison in words [2] | α-helical content ([2]; no acrolein) | macrophage reverse cholesterol transport [3] | cross-linking of the peptide after acrolein treatment [4] | effect on atherosclerosis (atherosclerosis) | molar potency for ABCA1 cholesterol efflux relative to native apoA-I (J774 macrophages [5]) | reduction of cholesterol efflux activity after acrolein exposure, molar acrolein:peptide ratio 5:1 (ABCA1) | reduction of cholesterol efflux activity after acrolein exposure, molar acrolein:peptide ratio 10:1 (ABCA1) | reduction of cholesterol efflux activity after acrolein exposure, molar acrolein:peptide ratio 20:1 (ABCA1)
1 | EVRSRLEEWFAAFREFAEEFLARLRS [K5,25→R, ATI-5261 with arginine in place of lysine at positions 5 and 25] | ~70% | increased upon exposure to acrolein | stimulated cholesterol efflux (4 h) efficiently | no effect on cholesterol efflux activity | 72.6% | lower α-helical content compared to the ATI-5261 control; also recorded: increase in α-helical content | 56.8% | greatly improved macrophage reverse cholesterol transport | – | – | – | – | – | –
2 | EVRSKLEEWFAAFREFAEEFLARLKS (synthetic amphipathic alpha helix HDL mimetic peptide ATI-5261 susceptible to oxidation that stimulates ATP binding cassette protein ABCA1-dependent cholesterol efflux based on apolipoprotein AI (ApoA-I) alpha-helical motif) [26-mer prototype/parent HDL mimetic ABCA1 efflux peptide, oxidation susceptible, reference compound] | – | marked decrease in cholesterol efflux activity | stimulated cholesterol efflux (4 h) efficiently | – | 48.3% | significantly lower helical content | 72.7% | – | substantial cross-linking | reduce substantial atherosclerosis | nearly the same molar potency as native apoA-I | – | – | –
3 | EVRSKLEEWFAAFREFAEEFLARLKS [ATI-5261] | – | – | – | – | – | – | – | – | – | – | – | 50% | 70% | 93%
